Reference: patent EP4289863A9 (Shanghai Huaota Biopharmaceutical Co., Ltd., dated 2024)

Legend:
[1] = target: T1, human IL-36R (human, UniProt Q9HB29 20-575); assay: cell-based or functional assay
T1 sequence (looked up): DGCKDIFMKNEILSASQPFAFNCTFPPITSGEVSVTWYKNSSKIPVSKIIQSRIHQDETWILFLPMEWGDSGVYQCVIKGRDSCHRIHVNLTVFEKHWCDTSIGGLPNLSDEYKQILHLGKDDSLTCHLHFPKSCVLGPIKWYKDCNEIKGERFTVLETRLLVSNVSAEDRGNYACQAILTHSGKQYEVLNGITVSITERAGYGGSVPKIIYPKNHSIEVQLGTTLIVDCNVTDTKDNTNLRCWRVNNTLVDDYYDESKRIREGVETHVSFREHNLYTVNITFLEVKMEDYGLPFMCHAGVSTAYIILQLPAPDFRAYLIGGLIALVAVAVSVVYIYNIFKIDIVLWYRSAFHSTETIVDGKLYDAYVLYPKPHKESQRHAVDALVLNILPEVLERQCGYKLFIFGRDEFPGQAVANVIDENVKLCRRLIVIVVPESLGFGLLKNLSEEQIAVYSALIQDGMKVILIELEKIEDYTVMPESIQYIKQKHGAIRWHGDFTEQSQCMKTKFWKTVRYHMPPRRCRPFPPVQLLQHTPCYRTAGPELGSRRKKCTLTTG

[2] = target: T2, Human IL-17A (human, UniProt Q16552 24-155); assay: ELISA, human IL-17A coated at 1 µg/ml
T2 construct: also called IL-17A recombinant protein; IL-17A soluble recombinant protein
T2 sequence (looked up): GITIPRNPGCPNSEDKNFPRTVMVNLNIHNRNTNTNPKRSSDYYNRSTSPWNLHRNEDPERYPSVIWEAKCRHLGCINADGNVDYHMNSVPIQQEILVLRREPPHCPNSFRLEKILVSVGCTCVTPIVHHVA

[3] = target: T1, human IL-36R; assay: flow cytometry on CHO-K1-huIL-36R-5E10/2F10 cells
[4] = target: T3, IL36R (analyte of Table 17) (Homo sapiens (Human), UniProt Q9HB29 20-335); assay: SPR Biacore 8K, antibody captured on anti-human chip, antigen as analyte, 1:1 model
T3 sequence: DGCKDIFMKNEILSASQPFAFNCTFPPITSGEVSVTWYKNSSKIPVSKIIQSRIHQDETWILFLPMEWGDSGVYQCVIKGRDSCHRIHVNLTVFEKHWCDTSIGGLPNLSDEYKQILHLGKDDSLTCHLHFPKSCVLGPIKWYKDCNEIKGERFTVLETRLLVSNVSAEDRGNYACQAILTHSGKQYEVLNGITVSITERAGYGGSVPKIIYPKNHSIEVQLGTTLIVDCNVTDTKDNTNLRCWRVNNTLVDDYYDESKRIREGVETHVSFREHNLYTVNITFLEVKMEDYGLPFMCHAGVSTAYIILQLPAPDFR

[5] = target: T4, IL17A (analyte of Table 17) (Homo sapiens (Human), UniProt Q16552 24-155); assay: as above
T4 sequence: T2 sequence (looked up)

- EC50 of inhibition of IL-6 content, NCI/ADR-RES cells stimulated with IL-36β [1]: 0.45 nM
- EC50 [2]: 0.18 nM
- EC50 [3]: 0.747 nM
- Kd [4]: 0.35 nM
- koff [4]: 7.2e-05 s⁻¹
- kon [4]: 205000 M⁻¹ s⁻¹
- Kd [5]: 0.0061 nM
- koff [5]: 4.13e-05 s⁻¹
- kon [5]: 6.77e+06 M⁻¹ s⁻¹
B1: IL17A-IL36R bispecific antibody 700005 (bispecific antibody)
heavy (part 1 of 2): QVQLVQSGSELKKPGASVKVSCKASEYIFTNYGMNWVKQAPGQGFEWMGWIDTNTGEPTYAQGFTGRFVFSLDTSVSTAYLQISSLKAEDTATYYCANYGWGYFDYWGQGTTVTVSS
heavy (part 2 of 2): GGGGSGGGGSGGGGSGGGGSQIVLTQSPGTLSLSPGERATLSCRASSSVSSSYLHWYQQKPGQAPRLWIYSTSSRATGIPDRFSGSGSGTDFTLTISRLEPEDFATYYCQQFQSSPLTFGQGTKLEIKGGGGSGGGGSGGGGSQVQLVQSGAEVKKPGASVKVSCKASGYTFTSSWMHWAKQAPGQGLEWIGEIHPNSAKTNYNQKFQGRVTMTRDTSISTAYMELSRLRSDDTAVYYCARVDYGKPWFAYWGQGTLVTVSS
light: DVVMTQTPPSLPVNPGEPASISCRSSQSLVHSNGYTYLHWYLQKPGQSPQLLIYKVSNHLSGVPDRFSGSGSGTDFTLKISWVEAEDVGVYFCSQSTHVPYTFGGGTKLEIKRTVAAPSVFIFPPSDEQLKSGTASVVCLLNNFYPREAKVQWKVDNALQSGNSQESVTEQDSKDSTYSLSSTLTLSKADYEKHKVYACEVTHQGLSSPVTKSFNRGEC
notes: also called 70005; not shown: heavy constant region CH1-CH2-CH3
